Like-named read-outs stand apart in the source and are kept apart here. Blank lines part the entries; values can stand above or below the binder they belong to.
Assays:
[1] = target: microtubules (MTs), individual (UniProt P68363); experiment: single-molecule TIRF microscopy
[2] = target: microtubules (MTs), individual (UniProt P68363); experiment: single-molecule TIRF microscopy; remark: listed apart in the source
[3] = target: microtubules (MTs), individual (UniProt P68363); experiment: single-molecule TIRF microscopy; remark: listed apart in the source
[4] = target: the molecule itself; experiment: single-molecule photobleaching steps
[5] = target: the molecule itself; experiment: negative stain electron microscopy
SEC = target: the molecule itself; experiment: SEC

Sequence of microtubules (MTs), individual (P68363 whole entry, chain 1 of 2): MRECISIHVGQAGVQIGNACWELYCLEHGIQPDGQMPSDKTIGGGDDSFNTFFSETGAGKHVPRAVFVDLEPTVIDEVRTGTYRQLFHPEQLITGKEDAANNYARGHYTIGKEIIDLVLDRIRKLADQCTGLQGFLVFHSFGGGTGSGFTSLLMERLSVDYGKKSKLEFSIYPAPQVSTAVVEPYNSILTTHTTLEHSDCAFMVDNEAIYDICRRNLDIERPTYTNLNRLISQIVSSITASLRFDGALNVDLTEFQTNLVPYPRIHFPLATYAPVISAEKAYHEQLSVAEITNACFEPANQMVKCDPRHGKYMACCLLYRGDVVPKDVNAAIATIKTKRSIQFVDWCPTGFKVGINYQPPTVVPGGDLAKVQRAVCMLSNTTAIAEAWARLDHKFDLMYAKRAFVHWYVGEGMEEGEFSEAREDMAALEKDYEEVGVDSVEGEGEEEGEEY
Sequence of microtubules (MTs), individual (P07437 whole entry, chain 2 of 2, further chain): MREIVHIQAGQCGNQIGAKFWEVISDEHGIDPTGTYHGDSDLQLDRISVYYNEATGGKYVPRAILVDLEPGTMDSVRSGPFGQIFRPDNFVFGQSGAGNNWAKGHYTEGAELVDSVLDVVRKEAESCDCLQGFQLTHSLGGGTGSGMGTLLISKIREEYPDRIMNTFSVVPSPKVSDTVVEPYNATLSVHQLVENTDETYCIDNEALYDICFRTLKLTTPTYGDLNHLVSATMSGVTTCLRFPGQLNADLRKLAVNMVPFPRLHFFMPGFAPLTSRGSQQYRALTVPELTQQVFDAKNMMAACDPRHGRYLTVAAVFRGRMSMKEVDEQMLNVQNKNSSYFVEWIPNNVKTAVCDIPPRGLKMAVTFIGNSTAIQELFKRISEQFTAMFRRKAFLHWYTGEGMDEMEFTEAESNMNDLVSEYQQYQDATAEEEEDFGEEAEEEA

dwell time [1]: 12.2 s | dwell time [2]: 1.9 s | dwell time [3]: 4 s
B1: GFP-Kif15-FL (full-length Kif15, Kinesin-12) (natural protein, UniProt Q9NS87 1-1388, looked up)
chain: MAPGCKTELRSVTNGQSNQPSNEGDAIKVFVRIRPPAERSGSADGEQNLCLSVLSSTSLRLHSNPEPKTFTFDHVADVDTTQESVFATVAKSIVESCMSGYNGTIFAYGQTGSGKTFTMMGPSESDNFSHNLRGVIPRSFEYLFSLIDREKEKAGAGKSFLCKCSFIEIYNEQIYDLLDSASAGLYLREHIKKGVFVVGAVEQVVTSAAEAYQVLSGGWRNRRVASTSMNRESSRSHAVFTITIESMEKSNEIVNIRTSLLNLVDLAGSERQKDTHAEGMRLKEAGNINRSLSCLGQVITALVDVGNGKQRHVCYRDSKLTFLLRDSLGGNAKTAIIANVHPGSRCFGETLSTLNFAQRAKLIKNKAVVNEDTQGNVSQLQAEVKRLKEQLAELASGQTPPESFLTRDKKKTNYMEYFQEAMLFFKKSEQEKKSLIEKVTQLEDLTLKKEKFIQSNKMIVKFREDQIIRLEKLHKESRGGFLPEEQDRLLSELRNEIQTLREQIEHHPRVAKYAMENHSLREENRRLRLLEPVKRAQEMDAQTIAKLEKAFSEISGMEKSDKNQQGFSPKAQKEPCLFANTEKLKAQLLQIQTELNNSKQEYEEFKELTRKRQLELESELQSLQKANLNLENLLEATKACKRQEVSQLNKIHAETLKIITTPTKAYQLHSRPVPKLSPEMGSFGSLYTQNSSILDNDILNEPVPPEMNEQAFEAISEELRTVQEQMSALQAKLDEEEHKNLKLQQHVDKLEHHSTQMQELFSSERIDWTKQQEELLSQLNVLEKQLQETQTKNDFLKSEVHDLRVVLHSADKELSSVKLEYSSFKTNQEKEFNKLSERHMHVQLQLDNLRLENEKLLESKACLQDSYDNLQEIMKFEIDQLSRNLQNFKKENETLKSDLNNLMELLEAEKERNNKLSLQFEEDKENSSKEILKVLEAVRQEKQKETAKCEQQMAKVQKLEESLLATEKVISSLEKSRDSDKKVVADLMNQIQELRTSVCEKTETIDTLKQELKDINCKYNSALVDREESRVLIKKQEVDILDLKETLRLRILSEDIERDMLCEDLAHATEQLNMLTEASKKHSGLLQSAQEELTKKEALIQELQHKLNQKKEEVEQKKNEYNFKMRQLEHVMDSAAEDPQSPKTPPHFQTHLAKLLETQEQEIEDGRASKTSLEHLVTKLNEDREVKNAEILRMKEQLREMENLRLESQQLIEKNWLLQGQLDDIKRQKENSDQNHPDNQQLKNEQEESIKERLAKSKIVEEMLKMKADLEEVQSALYNKEMECLRMTDEVERTQTLESKAFQEKEQLRSKLEEMYEERERTSQEMEMLRKQVECLAEENGKLVGHQNLHQKIQYVVRLKKENVRLAEETEKLRAENVFLKEKKRSES
stoichiometry N [4]: 2

B2: GFP-HSET (kinesin-14 HSET) (natural protein, UniProt Q9BW19 1-673, looked up)
chain: MDPQRSPLLEVKGNIELKRPLIKAPSQLPLSGSRLKRRPDQMEDGLEPEKKRTRGLGATTKITTSHPRVPSLTTVPQTQGQTTAQKVSKKTGPRCSTAIATGLKNQKPVPAVPVQKSGTSGVPPMAGGKKPSKRPAWDLKGQLCDLNAELKRCRERTQTLDQENQQLQDQLRDAQQQVKALGTERTTLEGHLAKVQAQAEQGQQELKNLRACVLELEERLSTQEGLVQELQKKQVELQEERRGLMSQLEEKERRLQTSEAALSSSQAEVASLRQETVAQAALLTEREERLHGLEMERRRLHNQLQELKGNIRVFCRVRPVLPGEPTPPPGLLLFPSGPGGPSDPPTRLSLSRSDERRGTLSGAPAPPTRHDFSFDRVFPPGSGQDEVFEEIAMLVQSALDGYPVCIFAYGQTGSGKTFTMEGGPGGDPQLEGLIPRALRHLFSVAQELSGQGWTYSFVASYVEIYNETVRDLLATGTRKGQGGECEIRRAGPGSEELTVTNARYVPVSCEKEVDALLHLARQNRAVARTAQNERSSRSHSVFQLQISGEHSSRGLQCGAPLSLVDLAGSERLDPGLALGPGERERLRETQAINSSLSTLGLVIMALSNKESHVPYRNSKLTYLLQNSLGGSAKMLMFVNISPLEENVSESLNSLRFASKVNQCVIGTAQANRK
stoichiometry N [5]: 2

B3: Kif15-N700 (C-terminally truncated Kif15) (domain or fragment, UniProt Q9NS87 1-700, looked up)
chain: MAPGCKTELRSVTNGQSNQPSNEGDAIKVFVRIRPPAERSGSADGEQNLCLSVLSSTSLRLHSNPEPKTFTFDHVADVDTTQESVFATVAKSIVESCMSGYNGTIFAYGQTGSGKTFTMMGPSESDNFSHNLRGVIPRSFEYLFSLIDREKEKAGAGKSFLCKCSFIEIYNEQIYDLLDSASAGLYLREHIKKGVFVVGAVEQVVTSAAEAYQVLSGGWRNRRVASTSMNRESSRSHAVFTITIESMEKSNEIVNIRTSLLNLVDLAGSERQKDTHAEGMRLKEAGNINRSLSCLGQVITALVDVGNGKQRHVCYRDSKLTFLLRDSLGGNAKTAIIANVHPGSRCFGETLSTLNFAQRAKLIKNKAVVNEDTQGNVSQLQAEVKRLKEQLAELASGQTPPESFLTRDKKKTNYMEYFQEAMLFFKKSEQEKKSLIEKVTQLEDLTLKKEKFIQSNKMIVKFREDQIIRLEKLHKESRGGFLPEEQDRLLSELRNEIQTLREQIEHHPRVAKYAMENHSLREENRRLRLLEPVKRAQEMDAQTIAKLEKAFSEISGMEKSDKNQQGFSPKAQKEPCLFANTEKLKAQLLQIQTELNNSKQEYEEFKELTRKRQLELESELQSLQKANLNLENLLEATKACKRQEVSQLNKIHAETLKIITTPTKAYQLHSRPVPKLSPEMGSFGSLYTQNSSILDNDILN
stoichiometry N (SEC): 2

From publication PMC4207087 (Current biology : CB, 2014)
